Results reported in patent US20230201322A1.
Read-outs that look alike come from different tables or passages of the source.

Experiments:
[1] = biological target: HLA-A*0201 molecule expressed on the human tumoral cell T2 (human); test: T2 cell HLA-A2 FACS (BB7.2-PE), peptide titration
[2] = biological target: HLA-A*0201 molecule expressed on the human tumoral cell T2 (human); test: T2 cell HLA-A2 FACS (BB7.2-PE), peptide titration; remark: listed apart in the source
[3] = biological target: HLA-A*0201 molecule expressed on the human tumoral cell T2 (human); test: T2 cell HLA-A2 FACS (BB7.2-PE), peptide titration; remark: listed apart in the source
[4] = biological target: HLA-A*0201 molecule expressed on the human tumoral cell T2 (human); test: T2 cell HLA-A2 FACS (BB7.2-PE), peptide 10 µM
[5] = biological target: HLA-A*0201 molecule expressed on the human tumoral cell T2 (human); test: T2 cell HLA-A2 FACS (BB7.2-PE), peptide 0.1 µM
[6] = biological target: HLA-A*0201 molecule expressed on the human tumoral cell T2 (human); test: T2 cell HLA-A2 FACS (BB7.2-PE), peptide 1 µM
[7] = biological target: HLA-A*0201 molecule expressed on the human tumoral cell T2 (human); test: T2 cell HLA-A2 FACS (BB7.2-PE), peptide 0.1 µM; remark: listed apart in the source
[8] = biological target: HLA-A*0201 molecule expressed on the human tumoral cell T2 (human); test: T2 cell HLA-A2 FACS (BB7.2-PE), peptide 10 µM; remark: listed apart in the source
[9] = biological target: HLA-A*0201 molecule expressed on the human tumoral cell T2 (human); test: T2 cell HLA-A2 FACS (BB7.2-PE), peptide 10 µM; remark: listed apart in the source
[10] = biological target: HLA-A*0201 molecule expressed on the human tumoral cell T2 (human); test: T2 cell HLA-A2 FACS (BB7.2-PE), peptide 0.1 µM; remark: listed apart in the source
[11] = biological target: HLA-A*0201 molecule expressed on the human tumoral cell T2 (human); test: T2 cell HLA-A2 FACS (BB7.2-PE), peptide 1 µM; remark: listed apart in the source
[12] = biological target: HLA-A*0201 molecule expressed on the human tumoral cell T2 (human); test: T2 cell HLA-A2 FACS (BB7.2-PE), peptide 1 µM; remark: listed apart in the source

For reference peptide HIV pol 589-597, the Conc. inducing 20% of HLA-A2 expression [1] was 30.9 µM, the Conc. inducing 20% of HLA-A2 expression [2] was 26.5 µM and the Conc. inducing 20% of HLA-A2 expression [3] was 36 µM. It also gave an HLA-A2 labelling as % of reference peptide HIV pol 589-597 at 100 µM [4] of -3.03%, an HLA-A2 labelling as % of reference peptide HIV pol 589-597 at 100 µM [5] of -9.24% and an HLA-A2 labelling as % of reference peptide HIV pol 589-597 at 100 µM [6] of -2.54%. It also gave an HLA-A2 labelling as % of reference peptide HIV pol 589-597 at 100 µM [7] of 5.62%, an HLA-A2 labelling as % of reference peptide HIV pol 589-597 at 100 µM [8] of 3.8% and an HLA-A2 labelling as % of reference peptide HIV pol 589-597 at 100 µM [9] of 8.8%. It also gave an HLA-A2 labelling as % of reference peptide HIV pol 589-597 at 100 µM [10] of 2.58%, an HLA-A2 labelling as % of reference peptide HIV pol 589-597 at 100 µM [11] of -5.38% and an HLA-A2 labelling as % of reference peptide HIV pol 589-597 at 100 µM [12] of 4.65%.
